Experimental data from US20250052751A1 (University of California, published 2025).

Target: T1, MHC class II I-A^b molecules purified by affinity chromatography (;mouse, UniProt P14434 24-218; P14483 28-226, limits assumed)
T1 construct: Source of the purified I-A^b is not described beyond 'as described (22)'; also called MHC II (I-A^b); MHC II
T1 sequence (MHC II alpha, looked up): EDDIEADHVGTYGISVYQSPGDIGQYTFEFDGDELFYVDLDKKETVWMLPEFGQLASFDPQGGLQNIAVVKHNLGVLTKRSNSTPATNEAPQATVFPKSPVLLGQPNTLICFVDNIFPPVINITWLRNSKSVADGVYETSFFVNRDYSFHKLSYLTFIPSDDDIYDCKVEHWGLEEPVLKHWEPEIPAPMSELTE
T1 sequence (MHC II beta, looked up): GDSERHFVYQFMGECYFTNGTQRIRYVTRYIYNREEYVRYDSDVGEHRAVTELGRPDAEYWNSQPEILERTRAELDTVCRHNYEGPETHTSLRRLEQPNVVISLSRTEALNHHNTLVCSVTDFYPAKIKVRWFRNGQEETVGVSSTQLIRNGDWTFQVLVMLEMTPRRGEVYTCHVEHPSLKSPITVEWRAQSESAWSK
Assay: competitive binding assay, purified I-A^b, radiolabeled competitor peptide
Protocol: We have now examined AQP4 peptide affinity for I-A^b biochemically. I-A^b molecules that were purified by affinity chromatography were tested in a competitive binding assay between a radiolabeled high-affinity competitor peptide and unlabeled peptides (22). Indeed, peptides containing the two pathogenic AQP4 T cell determinants bound I-A^b with higher affinity than the nonpathogenic AQP4 p24-35 T cell epitope or MOG p35-55 (FIG. 2D).

B1: AQP4 p202-218 (peptide)
peptide: LFAINYTGASMNPARSF
notes: Synthetic peptide (Genemed Synthesis); also called pathogenic AQP4 T cell determinant
fold greater affinity than MOG p35-55: > 10 fold
